{
  "source": "patent US20120107323A1",
  "about": "“KINASE PROTEIN BINDING INHIBITORS” (University of Florida, published 2012)",
  "key": {"[1]": {"target": "T1, Insulin-like Growth Factor 1 Receptor (IGF-1R), endogenous, of C8161 and A375 melanoma cells (human, UniProt P08069)", "assay": "co-immunoprecipitation from C8161 tumours of PBS treated mice, densitometry of Western blot", "protocol": "(§1) (p<0.05). […] To assess the in vivo effects of INT2-31 on cell proliferation, C8161 xenografts were stained with Ki67 antibody (FIG. 20C). […] The effect of INT2-31 on the in vivo interaction of FAK and IGF-1R in C8161 tumors was analyzed by immunoprecipitation of FAK from treated and untreated tumor. […] Finally, tumor analysis for AKT activation was performed and the level of p-AKT was detected by Western blot. […] Therefore, our lead compound, INT2-31, decreases in vivo tumor growth, disrupts the in vivo interaction of FAK and IGF-1R and results in a decrease in phosphorylation of AKT."}, "[2]": {"target": "T1, Insulin-like Growth Factor 1 Receptor …", "assay": "co-immunoprecipitation from C8161 tumours of mice treated with the small molecule INT2-31, densitometry of Western blot", "protocol": "as §1"}},
  "data": [
    {"binder": "Focal adhesion kinase (FAK), endogenous, of C8161 and A375 melanoma cells (enzyme) AAAYLDPNLNHTPNSSTKTHLGTGMERSPGAMERVLKVFHYFESNSEPTTWASIIRHGDATDVRGIIQKIVDSHKVKHVACYGFRLSHLRSEEVHWLHVDMGVSSVREKYELAHPPEEWKYELRIRYLPKGFLNQFTEDKPTLNFFYQQVKSDYMLEIADQVDQEIALKLGCLEIRRSYWEMRGNALEKKSNYEVLEKDVGLKRFFPKSLLDSVKAKTLRKLIQQTFRQFANLNREESILKFFEILSPVYRFDKECFKCALGSSWIISVELAIGPEEGISYLTDKGCNPTHLADFTQVQTIQYSNSEDKDRKGMLQLKIAGAPEPLTVTAPSLTIAENMADLIDGYCRLVNGTSQSFIIRPQKEGERALPSIPKLANSEKQGMRTHAVSVSETDDYAEIIDEEDTYTMPSTRDYEIQRERIELGRCIGEGQFGDVHQGIYMSPENPALAVAIKTCKNCTSDSVREKFLQEALTMRQFDHPHIVKLIGVITENPVWIIMELCTLGELRSFLQVRKYSLDLASLILYAYQLSTALAYLESKRFVHRDIAARNVLVSSNDCVKLGDFGLSRYMEDSTYYKASKGKLPIKWMAPESINFRRFTSASDVWMFGVCMWEILMHGVKPFQGVKNNDVIGRIENGERLPMPPNCPPTLYSLMTKCWAYDPSRRPRFTELKAQLSTILEEEKAQQEERMRMESRRQATVSWDSGGSDEAPPKPSRPGYPSPRSSEGFYPSPQHMVQTNHYQVSGYPGSHGITAMAGSIYPGQASLLDQTDSWNHRPQEIAMWQPNVEDSTVLDLRGIGQVLPTHLMEERLIRQQQEMEEDQRWLEKEERFLKPDVRLSRGSIDREDGSLQGPIGNQHIYQPVGKPDPAAPPKKPPRPGAPGHLGSLASLSSPADSYNEGVKLQPQEISPPPTANLDRSNDKVYENVTGLVKAVIEMSSKIQPAPPEEYVPMVKEVGLALRTLLATVDETIPLLPASTHREIEMAQKLLNSDLGELINKMKLAQQYVMTSLQQEYKKQMLTAAHALAVDAKNLLDVIDQARLKMLGQTRPH", "values": [
      {"measurement": "densitometry ratio of IGF-1R to FAK", "setting": "[1]", "value": 0.98},
      {"measurement": "densitometry ratio of IGF-1R to FAK", "setting": "[2]", "value": 0.78}
    ]}
  ]
}
